According to publication PMC6369299, “A heterodimeric glutathione S-transferase that stereospecifically breaks lignin's β(R)-aryl ether bond reveals the diversity of bacterial β-etherases” (The Journal of Biological Chemistry, 2018):

Tests used:
NaLigE = target: T1, NaLigE (Novosphingobium aromaticivorans, UniProt Q2G5N2); assay: initial rate of GS-HPV formation by HPLC, Michaelis-Menten fit; format: biochemical; conditions: racemic MPHPV added, concentration counted as β(R); 5 mM GSH, 25 mM Tris-HCl pH 8.0, 25 mM NaCl, 25 °C; per subunit of the homodimer
T1 construct: gene Saro_2405; recombinant from E. coli; N-terminal His8 tag cut by TEV (SAIAG- left); homodimer
T1 sequence (Q2G5N2 1-279): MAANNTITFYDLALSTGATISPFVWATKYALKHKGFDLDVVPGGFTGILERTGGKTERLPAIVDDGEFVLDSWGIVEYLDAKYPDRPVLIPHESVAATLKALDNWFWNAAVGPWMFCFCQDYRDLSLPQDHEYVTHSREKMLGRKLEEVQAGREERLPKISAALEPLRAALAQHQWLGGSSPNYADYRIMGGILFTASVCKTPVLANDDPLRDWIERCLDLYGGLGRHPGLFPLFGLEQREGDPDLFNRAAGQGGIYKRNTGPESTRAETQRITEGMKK
Text: initial rate of GS-HPV formation by HPLC, Michaelis-Menten fit on NaLigE

NaLigF1 = target: T2, NaLigF1 (Novosphingobium aromaticivorans, UniProt Q2G6J3); assay: HPLC end-point conversion of MPHPV; format: biochemical; conditions: β(S)-MPHPV left after BaeA+BaeB reaction on racemic MPHPV; GSH, 25 mM Tris-HCl pH 8.0, 25 mM NaCl, 30 °C
T2 construct: gene Saro_2091; recombinant, purified as described previously
T2 sequence (Q2G6J3 11-257 limits assumed): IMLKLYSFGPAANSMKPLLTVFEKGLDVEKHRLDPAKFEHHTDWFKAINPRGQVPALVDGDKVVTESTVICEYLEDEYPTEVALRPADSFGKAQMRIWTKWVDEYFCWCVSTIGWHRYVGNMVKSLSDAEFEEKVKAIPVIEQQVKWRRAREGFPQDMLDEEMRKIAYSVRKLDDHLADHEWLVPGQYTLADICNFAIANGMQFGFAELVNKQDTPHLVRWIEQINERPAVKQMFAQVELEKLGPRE

[1] = substrate: COc1cc(C(=O)[C@@H](CO)Oc2ccccc2OC)ccc1O; assay: initial rate of GS-HPV formation by HPLC, Michaelis-Menten fit; format: biochemical, Novosphingobium aromaticivorans; conditions: racemic MPHPV added, concentration counted as β(R), 5 mM GSH, 25 mM Tris-HCl pH 8.0, 25 mM NaCl, 25 °C, per heterodimer
Text: initial rate of GS-HPV formation by HPLC, Michaelis-Menten fit on BaeAB

Km (NaLigE) | Molecule | HPLC end-point conversion of MPHPV (NaLigF1) | Km [1] | kcat [1] | kcat/Km [1]
7 ± 1 µM | COc1cc(C(=O)[C@@H](CO)Oc2ccccc2OC)ccc1O [β(R)-MPHPV] | – | – | – | –
– | COc1cc(C(=O)[C@H](CO)Oc2ccccc2OC)ccc1O [β(S)-MPHPV] | upon the addition of NaLigF1, the MPHPV was completely converted into GS-HPV and guaiacol | – | – | –
– | BaeAB (Novosphingobium aromaticivorans DSM 12444) (protein, co-expressed in E. coli B834, His8 tag on BaeB cut by TEV leaving SAIAG- linked to Ser2 (Met1 not coded); heterodimer, ~59 kDa by GPC; with Glutathione S-transferase-like protein (beta-etherase subunit BaeB)) MDEVSLYHWEPNANSGKPMLALMEKGVPFSSHYIDMLQFDQHKPEYLAINPQGTIPAMTHNGQVLTESTAIMEYVNDRFDGPDLMPADAQDRWRVRWWMKFMDQWLGPSFSMIGWSVFVGPMVRQRDPAELAAAIDRIPLPERRTAWRKAINGDFSESEMAESRRRVGLGIAKLEEELGKRPYVGSNQYSLADINIFNSTYSLPISQPDLAGKDRTPNIMRWLKRVYTREAVKKTWAMGKTDLAHRYGLIMAEIEG | – | 20 ± 3 µM | 2.9 ± 0.3 s⁻¹ | 150000 ± 30000 M⁻¹ s⁻¹
– | BaeAB (Novosphingobium aromaticivorans DSM 12444; S15A) (protein, co-expressed in E. coli B834, His8 tag on BaeB cut by TEV leaving SAIAG- linked to Ser2 (Met1 not coded); heterodimer, ~59 kDa by GPC; with Glutathione S-transferase-like protein (beta-etherase subunit BaeB)) MDEVSLYHWEPNANAGKPMLALMEKGVPFSSHYIDMLQFDQHKPEYLAINPQGTIPAMTHNGQVLTESTAIMEYVNDRFDGPDLMPADAQDRWRVRWWMKFMDQWLGPSFSMIGWSVFVGPMVRQRDPAELAAAIDRIPLPERRTAWRKAINGDFSESEMAESRRRVGLGIAKLEEELGKRPYVGSNQYSLADINIFNSTYSLPISQPDLAGKDRTPNIMRWLKRVYTREAVKKTWAMGKTDLAHRYGLIMAEIEG | – | 100 ± 20 µM | 2.4 ± 0.3 s⁻¹ | 23000 ± 6000 M⁻¹ s⁻¹
– | BaeAB (Novosphingobium aromaticivorans DSM 12444; N14A) (protein, co-expressed in E. coli B834, His8 tag on BaeB cut by TEV leaving SAIAG- linked to Ser2 (Met1 not coded); heterodimer, ~59 kDa by GPC; with Glutathione S-transferase-like protein (beta-etherase subunit BaeB)) MDEVSLYHWEPNAASGKPMLALMEKGVPFSSHYIDMLQFDQHKPEYLAINPQGTIPAMTHNGQVLTESTAIMEYVNDRFDGPDLMPADAQDRWRVRWWMKFMDQWLGPSFSMIGWSVFVGPMVRQRDPAELAAAIDRIPLPERRTAWRKAINGDFSESEMAESRRRVGLGIAKLEEELGKRPYVGSNQYSLADINIFNSTYSLPISQPDLAGKDRTPNIMRWLKRVYTREAVKKTWAMGKTDLAHRYGLIMAEIEG | – | 250 ± 60 µM | 0.14 ± 0.02 s⁻¹ | 500 ± 200 M⁻¹ s⁻¹
